We go through 36 variants from the Human Domainome abundance scans (Beltran et al. 2025).

To fix the notation:
B1: Gamma-crystallin C, residues 4 to 79; numbered along this chain, P07315 (parent)
chain: ITFYEDRAFQGRSYETTTDCPNLQPYFSRCNSIRVESGCWMLYERPNYQGQQYLLRRGEYPDYQQWMGLSDSIRSC

± gives the uncertainty stated by the source.

In the data set the parent is B1. The data set is described as follows: abundance fitness (aPCA) (normalised: wild type 0, dead -1); higher = more abundant; growth selection in yeast, the domain comes from the species named. Particulars: Homo sapiens.
ITFYEDRAFQGRSYETTTDCPNLQPYISRCNSIRVESGCWMLYERPNYQGQQYLLRRGEYPDYQQWMGLSDSIRSC [F27I]: the abundance fitness is -0.144 ± 0.28.
In the case of ITFYEDRAFQGRSYETTTDCPNLQPYASRCNSIRVESGCWMLYERPNYQGQQYLLRRGEYPDYQQWMGLSDSIRSC [F27A], the abundance fitness came out at 0.124 ± 0.11.
As for ITFYEDRAFQGRSYETTTDCPNLQPYPSRCNSIRVESGCWMLYERPNYQGQQYLLRRGEYPDYQQWMGLSDSIRSC [F27P], the abundance fitness was -0.865 ± 0.22.
The same measure for ITFYEDRAFQGRSYETTTDCPNLQPYLSRCNSIRVESGCWMLYERPNYQGQQYLLRRGEYPDYQQWMGLSDSIRSC [F27L]: -0.09 ± 0.08.
The value for ITFYEDRAFQGRSYETTTDCPNLQPYRSRCNSIRVESGCWMLYERPNYQGQQYLLRRGEYPDYQQWMGLSDSIRSC [F27R] was -0.269 ± 0.08.
The same measure for ITFYEDRAFQGRSYETTTDCPNLQPYESRCNSIRVESGCWMLYERPNYQGQQYLLRRGEYPDYQQWMGLSDSIRSC [F27E]: -0.794 ± 0.25; for ITFYEDRAFQGRSYETTTDCPNLQPYMSRCNSIRVESGCWMLYERPNYQGQQYLLRRGEYPDYQQWMGLSDSIRSC [F27M]: 0.064 ± 0.15; for ITFYEDRAFQGRSYETTTDCPNLQPYCSRCNSIRVESGCWMLYERPNYQGQQYLLRRGEYPDYQQWMGLSDSIRSC [F27C]: -0.203 ± 0.17.
Turning to ITFYEDRAFQGRSYETTTDCPNLQPYKSRCNSIRVESGCWMLYERPNYQGQQYLLRRGEYPDYQQWMGLSDSIRSC [F27K], the abundance fitness is -0.658 ± 0.12.
ITFYEDRAFQGRSYETTTDCPNLQPYDSRCNSIRVESGCWMLYERPNYQGQQYLLRRGEYPDYQQWMGLSDSIRSC [F27D]: the abundance fitness was -1.02 ± 0.38.
On to ITFYEDRAFQGRSYETTTDCPNLQPYTSRCNSIRVESGCWMLYERPNYQGQQYLLRRGEYPDYQQWMGLSDSIRSC [F27T], for which the abundance fitness worked out at 0.079 ± 0.11.
The value for ITFYEDRAFQGRSYETTTDCPNLQPYGSRCNSIRVESGCWMLYERPNYQGQQYLLRRGEYPDYQQWMGLSDSIRSC [F27G] was -0.186 ± 0.063; that for ITFYEDRAFQGRSYETTTDCPNLQPYHSRCNSIRVESGCWMLYERPNYQGQQYLLRRGEYPDYQQWMGLSDSIRSC [F27H] was -0.096 ± 0.033; that for ITFYEDRAFQGRSYETTTDCPNLQPYSSRCNSIRVESGCWMLYERPNYQGQQYLLRRGEYPDYQQWMGLSDSIRSC [F27S] was -0.109 ± 0.076.
With ITFYEDRAFQGRSYETTTDCPNLQPYYSRCNSIRVESGCWMLYERPNYQGQQYLLRRGEYPDYQQWMGLSDSIRSC [F27Y], the abundance fitness was -0.468 ± 0.23.
The same measure for ITFYEDRAFQGRSYETTTDCPNLQPYNSRCNSIRVESGCWMLYERPNYQGQQYLLRRGEYPDYQQWMGLSDSIRSC [F27N]: -0.315 ± 0.17; for ITFYEDRAFQGRSYETTTDCPNLQPWFSRCNSIRVESGCWMLYERPNYQGQQYLLRRGEYPDYQQWMGLSDSIRSC [Y26W]: -0.092 ± 0.1.
The same measure for ITFYEDRAFQGRSYETTTDCPNLQPYFARCNSIRVESGCWMLYERPNYQGQQYLLRRGEYPDYQQWMGLSDSIRSC [S28A]: -0.038 ± 0.1; for ITFYEDRAFQGRSYETTTDCPNLQPYFLRCNSIRVESGCWMLYERPNYQGQQYLLRRGEYPDYQQWMGLSDSIRSC [S28L]: -0.082 ± 0.1.
The value for ITFYEDRAFQGRSYETTTDCPNLQPYFFRCNSIRVESGCWMLYERPNYQGQQYLLRRGEYPDYQQWMGLSDSIRSC [S28F] was 0.044 ± 0.1; that for ITFYEDRAFQGRSYETTTDCPNLQPYFKRCNSIRVESGCWMLYERPNYQGQQYLLRRGEYPDYQQWMGLSDSIRSC [S28K] was 0.317 ± 0.13.
In the case of ITFYEDRAFQGRSYETTTDCPNLQPYFERCNSIRVESGCWMLYERPNYQGQQYLLRRGEYPDYQQWMGLSDSIRSC [S28E], the abundance fitness stood at 0.093 ± 0.098.
The value for ITFYEDRAFQGRSYETTTDCPNLQPYFPRCNSIRVESGCWMLYERPNYQGQQYLLRRGEYPDYQQWMGLSDSIRSC [S28P] was -0.115 ± 0.12.
The same measure for ITFYEDRAFQGRSYETTTDCPNLQPYFIRCNSIRVESGCWMLYERPNYQGQQYLLRRGEYPDYQQWMGLSDSIRSC [S28I]: -0.017 ± 0.089; for ITFYEDRAFQGRSYETTTDCPNLQPYFVRCNSIRVESGCWMLYERPNYQGQQYLLRRGEYPDYQQWMGLSDSIRSC [S28V]: -0.03 ± 0.084.
For ITFYEDRAFQGRSYETTTDCPNLQPYFWRCNSIRVESGCWMLYERPNYQGQQYLLRRGEYPDYQQWMGLSDSIRSC [S28W], the abundance fitness was -0.15 ± 0.11.
The value for ITFYEDRAFQGRSYETTTDCPNLQPYFGRCNSIRVESGCWMLYERPNYQGQQYLLRRGEYPDYQQWMGLSDSIRSC [S28G] was 0.042 ± 0.12.
For the variant ITFYEDRAFQGRSYETTTDCPNLQPYFCRCNSIRVESGCWMLYERPNYQGQQYLLRRGEYPDYQQWMGLSDSIRSC [S28C], the abundance fitness is -0.117 ± 0.17.
The value for ITFYEDRAFQGRSYETTTDCPNLQPYFNRCNSIRVESGCWMLYERPNYQGQQYLLRRGEYPDYQQWMGLSDSIRSC [S28N] was 0.058 ± 0.15; that for ITFYEDRAFQGRSYETTTDCPNLQPYFRRCNSIRVESGCWMLYERPNYQGQQYLLRRGEYPDYQQWMGLSDSIRSC [S28R] was -0.045 ± 0.072.
Consider ITFYEDRAFQGRSYETTTDCPNLQPYFHRCNSIRVESGCWMLYERPNYQGQQYLLRRGEYPDYQQWMGLSDSIRSC [S28H], for which the abundance fitness was -0.014 ± 0.11.
The value for ITFYEDRAFQGRSYETTTDCPNLQPYFYRCNSIRVESGCWMLYERPNYQGQQYLLRRGEYPDYQQWMGLSDSIRSC [S28Y] was -0.012 ± 0.22.
The value for ITFYEDRAFQGRSYETTTDCPNLQPYFDRCNSIRVESGCWMLYERPNYQGQQYLLRRGEYPDYQQWMGLSDSIRSC [S28D] was 0.166 ± 0.47; that for ITFYEDRAFQGRSYETTTDCPNLQPYFQRCNSIRVESGCWMLYERPNYQGQQYLLRRGEYPDYQQWMGLSDSIRSC [S28Q] was -0.057 ± 0.17.
The value for ITFYEDRAFQGRSYETTTDCPNLQPYFSDCNSIRVESGCWMLYERPNYQGQQYLLRRGEYPDYQQWMGLSDSIRSC [R29D] was -0.239 ± 0.16.
Turning to ITFYEDRAFQGRSYETTTDCPNLQPYFSACNSIRVESGCWMLYERPNYQGQQYLLRRGEYPDYQQWMGLSDSIRSC [R29A], the abundance fitness is 0.085 ± 0.091.
